Measurements: patent US20190112365A1 (EISAI R AND D MANAGEMENT, published 2019)

Columns and labels:
[1] = target: T1, Tau peptide KDNIKHVSGGGSVQI (human); experiment: epitope substitution scanning on peptide chip
T1 construct: Variant peptide of the substitution scan
T1 peptide: KDNIKHVSGGGSVQI
Excerpt: FIG. 4 illustrates the results of the murine 7G6 antibody epitope substitution scanning of the peptide sequence […] (SEQ ID NO: 26), corresponding to amino acids 294 to 308 of the human 2N4R Tau protein. Each amino acid position of the peptide was replaced by every naturally occurring amino acid possible, printed onto a glass chip, and probed with the ms7G6 antibody. FIG. 4 illustrates the results for select peptides (SEQ ID NOs 38-78, respectively). While ms7G6 antibody binding allows some variation in the second position (valine) of SEQ ID NO: 79, antibody binding is completely dependent on the proline residue of SEQ ID NO: 79. No binding of antibody 7G6 to […] (SEQ ID NO: 59) was observed. The latter is the sequence present in Tau P301S mutant protein.
The ms7G6 anti-Tau antibody was diluted to a concentration of 1 μg/mL in PBS (pH 7.4) containing 0.05% Tween 20 and 10% Rockland blocking buffer (MB-070). The diluted antibody was incubated on the chip for 16 hours at 4° C. with shaking at 140 rpm. Primary antibody was removed and the chip was washed in PBS (pH 7.4)/0.05% Tween 20. […] Fluorescence images were acquired on the LI-COR Odyssey™ Imaging System and the microarray data was finally analyzed using the PepSlide™ Analyser software.

[2] = target: T2, P301S mutant human 2N4R Tau, recombinant full length (human, UniProt P10636 2-758); experiment: SPR; KD on P301S-2N4R Tau against KD on wild type 2N4R Tau
T2 construct: The equivalent P301S mutant of 2N4R Tau; also called P301S-2N4R Tau; P301S Tau
Description: (§1) Purified antibodies from hybridomas were captured by protein A/G immobilized on a CM5 sensor chip (GE Healthcare). The wild type and P301S Tau proteins were then injected onto the sensor chip at five different concentrations and the affinity (equilibrium dissociation constant, KD) was calculated according to the manufacturer's instruction.

[3] = target: T3, Human Tau 2N4R, wild type, recombinant full length (human, UniProt P10636 2-758); experiment: SPR BIAcore T100, mAb captured by protein A/G, Tau injected
T3 construct: Full length 2N4R isoform; monomer in SPR and ELISA; heparin-induced aggregates or seeds in the functional assays; also called Tau441; Tau-441
Description: (§2) Kinetic analysis of the interaction of the anti-Tau mouse monoclonal antibodies generated in Example 1 with human wild type Tau (2N4R) and the equivalent P301S mutant Tau protein was conducted using a BIAcore™ T100 instrument. Recombinant human full length Tau proteins were expressed in E. coli and then purified by Cellufine™ phosphate affinity chromatography followed by ammonium sulfate precipitation and reverse phase HPLC chromatography.
as §1

[4] = target: T2, P301S mutant human 2N4R Tau, …; experiment: as above
Description: as §2, §1

[5] = target: T4, HVPGG site of Tau (15-mer array peptides containing HVPGG) (human); experiment: peptide microarray; HVPGG site of the fourth repeat region against HKPGG (repeat region 3)
T4 peptide: HVPGG
Description: (§3) The diluted antibody was incubated on the chip for 16 hours at 4° C. with shaking at 140 rpm. Primary antibody was removed and the chip was washed in PBS (pH 7.4)/0.05% Tween 20. Wash buffer was removed and goat anti-mouse IgG (H+L) DyLight™680 (1:5000) and an anti-HA tag DyLight™ 800 (1:2000) in the same buffer as the primary antibody was then incubated for 45 minutes at room temperature on the chip. Detection antibody was removed and the chip was washed once again as previously. Fluorescence images were acquired on the LI-COR Odyssey™ Imaging System and the microarray data was finally analyzed using the PepSlide™ Analyser software.

[6] = target: T4, HVPGG site of Tau (15-mer array …); experiment: peptide microarray; HVPGG site of the fourth repeat region against HQPGG (repeat region 1)
Description: as §3

[7] = target: T4, HVPGG site of Tau (15-mer array …); experiment: peptide microarray; HVPGG site of the second repeat region against HKPGG (repeat region 3)
Description: as §3

[8] = target: T4, HVPGG site of Tau (15-mer array …); experiment: peptide microarray; HVPGG site of the second repeat region against HQPGG (repeat region 1)
Description: as §3

T2 sequence (P10636 other isoform, or with tags, fused parts or gaps P301S P301S limits assumed): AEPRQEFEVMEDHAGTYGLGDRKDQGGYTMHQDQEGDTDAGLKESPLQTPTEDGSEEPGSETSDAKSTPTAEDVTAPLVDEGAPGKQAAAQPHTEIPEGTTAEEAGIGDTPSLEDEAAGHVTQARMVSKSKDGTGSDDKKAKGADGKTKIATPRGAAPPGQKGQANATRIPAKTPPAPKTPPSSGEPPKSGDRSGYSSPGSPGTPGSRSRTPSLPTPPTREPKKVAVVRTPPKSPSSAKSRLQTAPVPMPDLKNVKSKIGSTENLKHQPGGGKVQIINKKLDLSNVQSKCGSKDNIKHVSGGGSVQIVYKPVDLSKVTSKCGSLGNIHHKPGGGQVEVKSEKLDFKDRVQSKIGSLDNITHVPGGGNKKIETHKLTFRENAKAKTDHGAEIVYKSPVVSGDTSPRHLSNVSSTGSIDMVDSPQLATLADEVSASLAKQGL
T3 sequence (P10636 other isoform, or with tags, fused parts or gaps limits assumed): as the sequence (P10636 other isoform, or with tags, fused parts or gaps P301S P301S limits assumed) above, with S300P counted along it

B1: murine 7G6 antibody (antibody, mouse IgG2b, V domains shown)
VH: QVQLLQPGAELVKPGASVIMSCKASGYTFTTYWITWVKQRPGQGLEWIGDIYPGSSICNYNEKFKSKATLTVDTSSSTAYMQLNSLTSEDSAVYYCAREDGYDAWFAYWGQGTLVTVSA
VL: DVLMTQTPLSLPVSLGDQASISCRSSQSILHSNGNTYLEWYLQKPGQSPKLLICKVSNRFSGVPDRFSGSGSGTDFTLKISRVEAEDLGVYYCFQGSHVPFTFGSGTKLEIK
notes: Mouse IgG2b, kappa, purified from hybridoma; also called ms7G6; mouse 7G6
Question: Does B1 bind [1]?
Answer: no binding (tested: 1 µg/mL)

Question: And the Fold difference [2]?
Answer: 11 fold

Question: And the Kd [3]?
Answer: 0.052 nM

Question: And the Kd [4]?
Answer: 0.57 nM

Question: What about the “fold preference in binding (average signal intensities)” value (from here on “fold preference in binding”) [5] of the same binder?
Answer: 33 fold

Question: And the “fold preference in binding” value [6]?
Answer: 35 fold

Question: And the “fold preference in binding” value [7]?
Answer: 38 fold

Question: And the “fold preference in binding” value [8]?
Answer: 41 fold
